# What was measured:
# Mouse plasma stability = format: in vitro ADME; details: Cy5.5-T-peptide 100 µg in 200 µL naïve C57BL/6 mouse plasma (citrated), 37 °C, acetonitrile precipitation, HPLC C18, 280 nm
# Method: Cy5.5-T-Peptide (100 µg, 10 µL in PBS) was added to 200 µL of naïve C57BL/6 mouse plasma and the sample was incubated at 37 °C over 4 h. Aliquots (40 µL) were taken from the mixture at 5, 10, 30, 60 and 240 min, and then added to 40 µL of acetonitrile. The formed precipitates were separated by centrifugation and the supernatant was analyzed by HPLC. The percentage of decomposition at each timepoint was then calculated from the chromatograms (Supplementary Fig. 1). The HPLC conditions were: Phenomenex Luna® 5 µm C18(2) 100 Å, LC Column 150 ×4.6 mm at a flow rate of 1 mL/min (Method: 5–95% buffer B to A over 20 min, λabs = 280 nm).
# [1] = tested on: MMP-2-degraded collagen IV
# Method: Ex vivo fluorescent imaging was performed according to our published protocol[26]. In brief, fluorescently-tagged EP-3533 or the T-peptide were injected intravenously into mice at 0.5 mg/kg via the tail vein. The S-peptide was delivered at 0.466 mg/kg, being the identical mole equivalent to the T-peptide (0.258 µmol/kg). Injections were performed by a person blinded to the administered substance. Animals were humanely euthanised 4 h post-injection by an overdose of ketamine (300 mg/kg) and xylazine (30 mg/kg) and perfused via the heart with 20 ml of PBS. The liver, lung, spleen, kidney, brain, thigh muscle and the heart were next harvested and the atria separated from the ventricles. Organs were then scanned on the Odyssey CLx NIRF 2-D scanner (Li-Cor Biosciences, NE, USA) at 169 µm resolution using the ‘Manual L1’ or ‘L2’ intensity and 0.5 mm focus offset settings. A noninjected mouse served for background correction. The mean fluorescence intensity value per pixel (1 pixel = 169 × 169 µm = 0.0285 mm^2) were then extracted from regions of interest using Image Studio 5.2 software (Li-Cor Biosciences).
# [2] = Blood clearance of Cy5.5-labeled tracers after IV injection; format: in vivo, mouse; details: Cy5.5-conjugated tracer 0.5 mg/kg IV; mixed male/female 'AF + HF' and control mice, 28-31 weeks; blood NIR fluorescence at 2-4, 12, 240 min; one-phase decay fit; Mean±SEM, n=4 (EP-3533), n=8 (T-peptide)
# Method: ‘AF + HF’ mice and non-transgenic controls (28–31 weeks) were intravenously injected with Cy5.5-labeled T-peptide or EP-3533 (0.5 mg/kg), as described above. Blood samples (2.5 µl) were collected from the opposite tail vein at 2–4, 12 and 240 min, and diluted in 47.5 µl of citrated PBS (0.32% w/v sodium citrate). 50 µl samples were transferred into 96-well plates (Optiplate, black-walled, transparent bottom; PerkinElmer, MA, USA) and scanned on the Odyssey CLx NIRF scanner using the ‘Manual L1’ intensity and 3 mm focus offset settings. Following subtraction of unlabeled blood background, the total fluorescence per well was plotted against time. The blood fluorescence levels at t = 0 and half-life were extrapolated from a one-phase decay non-linear regression, and the data was presented as percentage from the value of t = 0[26].
# [3] = 'AF + HF' mice, Cy5.5 conjugates equimolar 0.258 µmol/kg IV, 4 h, ex vivo NIR, S-peptide signal corrected for brightness, n=5 per group
substance,measurement,setting,value
TLTYTWS [Cy5.5-T-peptide],tracer remaining intact after 60 min in mouse plasma,Mouse plasma stability; 60 min,60%
same,tracer remaining intact after 4 h in mouse plasma,Mouse plasma stability; 240 min,22%
same,T-peptide binding in atria relative to the S-peptide,[1]; [3],1.72 fold
same,T-peptide binding in ventricles relative to the S-peptide,[1]; [3],1.78 fold
same,atria/ventricles retention in 'AF + HF' mice,"[1]; mouse, in vivo",2.61 fold
same,blood (circulating) half-life,[2],9.23 ± 0.9 min
